± gives the standard deviation of the averaged measurements.
Experiments:
MCF7 = assay: percentage of EdU-negative (G0-arrested) nuclei per well, 72 h; higher = more G0 arrest; details: reference: sequence is the full UniProt precursor, the tested protein was the secreted form or ectodomain
hTERT-HMEC = assay: as above; details: reference: sequence is the full UniProt precursor, the tested protein was the secreted form or ectodomain
[1] = protein concentration 0.0225 µM
[2] = protein concentration 0.0254286 µM
[3] = protein concentration 0.254286 µM
[4] = protein concentration 0.03125 µM
[5] = protein concentration 0.3125 µM
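Note: secreted proteins added to cultured cells, EdU pulse at the end, nuclei found by Hoechst imaging, EdU status from nuclear versus surrounding ring intensity ratio, PBS as neutral control.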

Sequence: MVGAMWKVIVSLVLLMPGPCDGLFRSLYRSVSMPPKGDSGQPLFLTPYIEAGKIQKGRELSLVGPFPGLNMKSYAGFLTVNKTYNSNLFFWFFPAQIQPEDAPVVLWLQGGPGGSSMFGLFVEHGPYVVTSNMTLRDRDFPWTTTLSMLYIDNPVGTGFSFTDDTHGYAVNEDDVARDLYSALIQFFQIFPEYKNNDFYVTGESYAGKYVPAIAHLIHSLNPVREVKINLNGIAIGDGYSDPESIIGGYAEFLYQIGLLDEKQKKYFQKQCHECIEHIRKQNWFEAFEILDKLLDGDLTSDPSYFQNVTGCSNYYNFLRCTEPEDQLYYVKFLSLPEVRQAIHVGNQTFNDGTIVEKYLREDTVQSVKPWLTEIMNNYKVLIYNGQLDIIVAAALTERSLMGMDWKGSQEYKKAEKKVWKIFKSDSEVAGYIRQAGDFHQVIIRGGGHILPYDQPLRAFDMINRFIYGKGWDPYVG [Q9H3G5]
- percentage of EdU-negative (MCF7; protein concentration 0.014 µM): 26.1 ± 4.2%
- percentage of EdU-negative (MCF7; protein concentration 0.14 µM): 29.1 ± 0.47%
- percentage of EdU-negative (hTERT-HMEC; protein concentration 0.014 µM): 5.19 ± 0.19%
- percentage of EdU-negative (hTERT-HMEC; protein concentration 0.14 µM): 6.64 ± 0.14%

Sequence: MQGPWVLLLLGLRLQLSLGIIPVEEENPDFWNRQAAEALGAAKKLQPAQTAAKNLIIFLGDGMGVSTVTAARILKGQKKDKLGPETFLAMDRFPYVALSKTYSVDKHVPDSGATATAYLCGVKGNFQTIGLSAAARFNQCNTTRGNEVISVMNRAKKAGKSVGVVTTTRVQHASPAGAYAHTVNRNWYSDADVPASARQEGCQDIATQLISNMDIDVILGGGRKYMFPMGTPDPEYPDDYSQGGTRLDGKNLVQEWLAKHQGARYVWNRTELLQASLDPSVTHLMGLFEPGDMKYEIHRDSTLDPSLMEMTEAALLLLSRNPRGFFLFVEGGRIDHGHHESRAYRALTETIMFDDAIERAGQLTSEEDTLSLVTADHSHVFSFGGYPLRGSSIFGLAPGKARDRKAYTVLLYGNGPGYVLKDGARPDVTESESGSPEYRQQSAVPLDGETHAGEDVAVFARGPQAHLVHGVQEQTFIAHVMAFAACLEPYTACDLAPRAGTTDAAHPGPSVVPALLPLLAGTLLLLGTATAP
- percentage of EdU-negative (MCF7; [1]): 23.9 ± 3.7%
- percentage of EdU-negative (MCF7; protein concentration 0.225 µM): 27.2 ± 0.72%
- percentage of EdU-negative (hTERT-HMEC; [1]): 4.62 ± 0.18%
- percentage of EdU-negative (hTERT-HMEC; protein concentration 0.225 µM): 5.34 ± 0.29%

Sequence: MGLTLLLLLLLGLEGQGIVGSLPEVLQAPVGSSILVQCHYRLQDVKAQKVWCRFLPEGCQPLVSSAVDRRAPAGRRTFLTDLGGGLLQVEMVTLQEEDAGEYGCMVDGARGPQILHRVSLNILPPEEEEETHKIGSLAENAFSDPAGSANPLEPSQDEKSIPLIWGAVLLVGLLVAAVVLFAVMAKRKQGNRLGVCGRFLSSRVSGMNPSSVVHHVSDSGPAAELPLDVPHIRLDSPPSFDNTTYTSLPLDSPSGKPSLPAPSSLPPLPPKVLVCSKPVTYATVIFPGGNKGGGTSCGPAQNPPNNQTPSS [Q86YW5]
- percentage of EdU-negative (MCF7; [2]): 20.7 ± 3.4%
- percentage of EdU-negative (MCF7; [3]): 26 ± 4.5%
- percentage of EdU-negative (hTERT-HMEC; [2]): 5.07 ± 0.49%
- percentage of EdU-negative (hTERT-HMEC; [3]): 5.75 ± 0.65%

Sequence: MGLWGQSVPTASSARAGRYPGARTASGTRPWLLDPKILKFVVFIVAVLLPVRVDSATIPRQDEVPQQTVAPQQQRRSLKEEECPAGSHRSEYTGACNPCTEGVDYTIASNNLPSCLLCTVCKSGQTNKSSCTTTRDTVCQCEKGSFQDKNSPEMCRTCRTGCPRGMVKVSNCTPRSDIKCKNESAASSTGKTPAAEETVTTILGMLASPYHYLIIIVVLVIILAVVVVGFSCRKKFISYLKGICSGGGGGPERVHRVLFRRRSCPSRVPGAEDNARNETLSNRYLQPTQVSEQEIQGQELAELTGVTVELPEEPQRLLEQAEAEGCQRRRLLVPVNDADSADISTLLDASATLEEGHAKETIQDQLVGSEKLFYEEDEAGSATSCL [Q9UBN6]
- percentage of EdU-negative (MCF7; [1]): 24 ± 0.81%
- percentage of EdU-negative (MCF7; protein concentration 0.225 µM): 24.3 ± 2%
- percentage of EdU-negative (hTERT-HMEC; [1]): 4.16 ± 0.28%
- percentage of EdU-negative (hTERT-HMEC; protein concentration 0.225 µM): 4.86 ± 0.69%

Sequence: MAPARAGFCPLLLLLLLGLWVAEIPVSAKPKGMTSSQWFKIQHMQPSPQACNSAMKNINKHTKRCKDLNTFLHEPFSSVAATCQTPKIACKNGDKNCHQSHGAVSLTMCKLTSGKHPNCRYKEKRQNKSYVVACKPPQKKDSQQFHLVPVHLDRVL [Q9H1E1]
- percentage of EdU-negative (MCF7; [4]): 24.6 ± 0.7%
- percentage of EdU-negative (MCF7; [5]): 26 ± 3.1%
- percentage of EdU-negative (hTERT-HMEC; [4]): 4.51 ± 0.69%
- percentage of EdU-negative (hTERT-HMEC; [5]): 6.66 ± 0.32%

Sequence: MTSSLQRPWRVPWLPWTILLVSTAAASQNQERLCAFKDPYQQDLGIGESRISHENGTILCSKGSTCYGLWEKSKGDINLVKQGCWSHIGDPQECHYEECVVTTTPPSIQNGTYRFCCCSTDLCNVNFTENFPPPDTTPLSPPHSFNRDETIIIALASVSVLAVLIVALCFGYRMLTGDRKQGLHSMNMMEAAASEPSLDLDNLKLLELIGRGRYGAVYKGSLDERPVAVKVFSFANRQNFINEKNIYRVPLMEHDNIARFIVGDERVTADGRMEYLLVMEYYPNGSLCKYLSLHTSDWVSSCRLAHSVTRGLAYLHTELPRGDHYKPAISHRDLNSRNVLVKNDGTCVISDFGLSMRLTGNRLVRPGEEDNAAISEVGTIRYMAPEVLEGAVNLRDCESALKQVDMYALGLIYWEIFMRCTDLFPGESVPEYQMAFQTEVGNHPTFEDMQVLVSREKQRPKFPEAWKENSLAVRSLKETIEDCWDQDAEARLTAQCAEERMAELMMIWERNKSVSPTVNPMSTAMQNERNLSHNRRVPKIGPYPDYSSSSYIEDSIHHTDSIVKNISSEHSMSSTPLTIGEKNRNSINYERQQAQARIPSPETSVTSLSTNTTTTNTTGLTPSTGMTTISEMPYPDETNLHTTNVAQSIGPTPVCLQLTEEDLETNKLDPKEVDKNLKESSDENLMEHSLKQFSGPDPLSSTSSSLLYPLIKLAVEATGQQDFTQTANGQACLIPDVLPTQIYPLPKQQNLPKRPTSLPLNTKNSTKEPRLKFGSKHKSNLKQVETGVAKMNTINAAEPHVVTVTMNGVAGRNHSVNSHAATTQYANGTVLSGQTTNIVTHRAQEMLQNQFIGEDTRLNINSSPDEHEPLLRREQQAGHDEGVLDRLVDRRERPLEGGRTNSNNNNSNPCSEQDVLAQGVPSTAADPGPSKPRRAQRPNSLDLSATNVLDGSSIQIGESTQDGKSGSGEKIKKRVKTPYSLKRWRPSTWVISTESLDCEVNNNGSNRAVHSKSSTAVYLAEGGTATTMVSKDIGMNCL
- percentage of EdU-negative (MCF7; [4]): 26.3 ± 0.7%
- percentage of EdU-negative (MCF7; [5]): 24 ± 3.6%
- percentage of EdU-negative (hTERT-HMEC; [4]): 4.72 ± 0.9%
- percentage of EdU-negative (hTERT-HMEC; [5]): 6.26 ± 1.5%

From the supplement of paper PMC11316812
